The target in this experiment is human membrane attack complex (MAC), C5b-9 complex (human) (UniProt P01031). The experiment in a line: cell-based or functional assay.

B1: human CD59, glycosylphosphatidylinositol (GPI)-anchored membrane protein (protein, UniProt P13987 26-102, looked up)
chain: LQCYNCPNPTADCKTAVNCSSDFDACLITKAGLQVYNKCWKFEHCNFNDVTTRLRENELTYYCCKKDLCNFNEQLEN
modifications: GPI anchor at Asparagine 77 (mature numbering)
Molecule B1 came in with a complement mediated cell lysis (PI uptake, FACS; hepa-1c1c7 cells, 1000 vp/cell AdCAGCD59, 1% NHS) of 12.3%; a fold reduction of complement mediated cell lysis of 8 fold; an inhibition of cell lysis at 250 vp/cell of AdCAGCD59 greater than 50%; an inhibition of cell lysis at 500 vp/cell of AdCAGCD59 greater than 70%. For the same molecule, the reduction in MAC immunofluorescence intensity on corneal endothelium is 86%, the reduction in MAC immunofluorescence on eyecups at 7.5 min NHS treatment was 68%, the reduction in MAC immunofluorescence on eyecups at 15 min NHS treatment came out at 56% and the reduction in mean MAC immunofluorescence intensity on RPE of eyecup tissues came out at 55%.

These data come from patent publication US20110015136A1.
